From patent US20220135638A1 (Takeda / Millennium, published 2022) come the findings set out here.

Assay [1] deals with T1, full-length human GIPR (GenBank NM_000164) with an N-terminal FLAG tag on HEK-293T cells (human), P48546.
T1 chain: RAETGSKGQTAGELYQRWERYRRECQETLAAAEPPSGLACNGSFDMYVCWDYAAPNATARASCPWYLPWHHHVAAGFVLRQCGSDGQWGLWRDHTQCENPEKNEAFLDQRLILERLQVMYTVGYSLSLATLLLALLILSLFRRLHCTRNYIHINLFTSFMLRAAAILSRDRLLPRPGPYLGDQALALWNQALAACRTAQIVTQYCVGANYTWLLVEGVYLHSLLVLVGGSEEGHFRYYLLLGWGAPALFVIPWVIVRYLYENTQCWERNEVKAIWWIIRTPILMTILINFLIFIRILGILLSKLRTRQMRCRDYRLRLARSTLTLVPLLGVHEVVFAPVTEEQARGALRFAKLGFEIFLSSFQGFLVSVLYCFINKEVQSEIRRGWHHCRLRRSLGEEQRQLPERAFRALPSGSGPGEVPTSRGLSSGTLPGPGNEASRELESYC
Nature of the assay: cell-based or functional assay.

Assay [2] deals with T2, full-length human GLP-1R (GenBank NM_002062) with an N-terminal FLAG tag on HEK-293T cells (human), P43220.
T2 chain: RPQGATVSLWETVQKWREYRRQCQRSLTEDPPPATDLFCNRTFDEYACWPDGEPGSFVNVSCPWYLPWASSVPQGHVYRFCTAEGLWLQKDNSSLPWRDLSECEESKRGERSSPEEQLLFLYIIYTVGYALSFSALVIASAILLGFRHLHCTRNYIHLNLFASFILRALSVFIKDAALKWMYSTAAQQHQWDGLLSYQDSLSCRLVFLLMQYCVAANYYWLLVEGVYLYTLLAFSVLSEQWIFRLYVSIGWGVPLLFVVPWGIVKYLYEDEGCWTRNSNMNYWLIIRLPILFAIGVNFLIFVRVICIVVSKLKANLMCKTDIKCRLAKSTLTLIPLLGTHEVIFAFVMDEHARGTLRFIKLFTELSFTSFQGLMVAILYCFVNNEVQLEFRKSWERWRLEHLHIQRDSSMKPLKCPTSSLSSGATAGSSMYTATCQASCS
The assay is described as follows: cell-based or functional assay.

Numbered stars: 1 amine (or outer) side, 2 acyl side, 3 side chain; on linkers, the order of the positions; unused ones are H or OH. Square brackets hold non-standard residues; d marks the D form. Primed or numbered codes have the meaning given here. Side chains are listed from the residue outwards. Ends that are not written are not given here. * marks the point of attachment. C20 diacid = O=C(O)CCCCCCCCCCCCCCCCCCC(=O)*; C18 diacid = O=C(O)CCCCCCCCCCCCCCCCC(=O)*; C16 diacid = O=C(O)CCCCCCCCCCCCCCC(=O)*; γGlu = O=C(O)[C@H](CCC(=O)[*:2])N[*:1]; Iva = CC[C@](C)(N)C(=O)O; PEG3′ = not defined here; Abu = CC[C@H](N)C(=O)O; Aib = CC(C)(N)C(=O)O

For Y[Aib]EGTFISDYSIALDR[Aib]HQ[Aib]NFVNW[Iva]LAQRPSSGAPPK([PEG3′-γGlu-C18 diacid])S (ends and bridges not checked) [Compound No. 531], the GIP EC50(pM) in assay [1] came out at 1.02 pM. In assay [2], this molecule showed a GLP EC50 of over 1000 nM.

As for Y[Aib]EGTFISDYSIALDR[Aib]HQ[Aib]NFVNW[Iva]LAQRPSSGAK([γGlu-γGlu-C18 diacid])PPS (ends and bridges not checked) [Compound No. 552], in assay [1], the GIP EC50(pM) is 1.12 pM. The GLP EC50 in assay [2] is over 1000 nM.

For the molecule Y[Aib]EGTFISDYSIALDR[Aib]HQ[Aib]NFVNW[Iva]LAQRPSSGAPPPK([PEG3′-γGlu-C16 diacid]) (ends and bridges not checked) [Compound No. 533], in assay [1], the GIP EC50(pM) was determined as 0.59 pM. The GLP EC50 in assay [2] is 776 nM.

Regarding Y[Aib]EGTFISDYSIALDR[Aib]HQ[Aib]NFVNW[Iva]LAQRPSK([Abu-γGlu-C18 diacid])GAPPPS (ends and bridges not checked) [Compound No. 539], the GIP EC50(pM) in assay [1] was determined as 2.66 pM. This molecule also showed a GLP EC50 in assay [2] of over 1000 nM.

On to Y[Aib]EGTFISDYSIALDR[Aib]HQ[Aib]NFVNW[Iva]LAQRPSSGAPPPK([γGlu-γGlu-C18 diacid]) (ends and bridges not checked) [Compound No. 555], for which the GIP EC50(pM) in assay [1] is 0.97 pM. In addition, in assay [2], the GLP EC50 was over 1000 nM.

Take Y[Aib]EGTFISDYSIALDR[Aib]HQ[Aib]NFVNW[Iva]LAQRPSSGAPPK([γGlu-γGlu-C18 diacid])S (ends and bridges not checked) [Compound No. 554]: in assay [1], the GIP EC50(pM) was 0.82 pM. In assay [2], this molecule registered a GLP EC50 of over 1000 nM.

Molecule Y[Aib]EGTFISDYSIALDR[Aib]HQ[Aib]NFVNW[Iva]LAQRPSSGAPPK([Abu-γGlu-C18 diacid])S (ends and bridges not checked) [Compound No. 544] showed a GIP EC50(pM) in assay [1] of 0.94 pM. Also, the GLP EC50 in assay [2] is over 1000 nM.

The molecule Y[Aib]EGTFISDYSIALDR[Aib]HQ[Aib]NFVNW[Iva]LAQRPSSGAK([Abu-γGlu-C18 diacid])PPS (ends and bridges not checked) [Compound No. 542] registered a GIP EC50(pM) in assay [1] of 1.21 pM. The same molecule yielded a GLP EC50 in assay [2] of over 1000 nM.

For the molecule Y[Aib]EGTFISDYSIALDR[Aib]HQ[Aib]NFVNW[Iva]LAQRPSSGAPPPK([PEG3′-γGlu-C20 diacid]) (ends and bridges not checked) [Compound No. 535], in assay [1], the GIP EC50(pM) turned out to be 1.54 pM. This molecule gave a GLP EC50 in assay [2] of over 1000 nM.

For Y[Aib]EGTFISDYSIALDR[Aib]HQ[Aib]NFVNW[Iva]LAQRPSSGAPPPK([Abu-γGlu-C18 diacid]) (ends and bridges not checked) [Compound No. 545], the GIP EC50(pM) in assay [1] is 0.43 pM. Further, the GLP EC50 in assay [2] is over 1000 nM.

In assay [1], Y[Aib]EGTFISDYSIALDR[Aib]HQ[Aib]NFVNW[Iva]LAQRK([PEG3′-PEG3′-C16 diacid])SSGAPPPSR (ends and bridges not checked) [Compound No 911] had a GIP EC50(pM) of 0.8 pM. The molecule further displayed a GLP EC50 in assay [2] of 93.3 nM.

Molecule Y[Aib]EGTFISDYSIALDR[Aib]HQ[Aib]NFVNW[Iva]LAQRPSSGAPK([PEG3′-γGlu-C20 diacid])PS (ends and bridges not checked) [Compound No. 529] came in with a GIP EC50(pM) in assay [1] of 1.3 pM. Also, the GLP EC50 in assay [2] was over 1000 nM.

For Y[Aib]EGTFISDYSIALDR[Aib]HQ[Aib]NFVNW[Iva]LAQRPSK([γGlu-γGlu-C18 diacid])GAPPPS (ends and bridges not checked) [Compound No. 549], the GIP EC50(pM) in assay [1] came out at 0.85 pM. Besides, the GLP EC50 in assay [2] was over 1000 nM.

Molecule Y[Aib]EGTFISDYSIALDR[Aib]HQ[Aib]NFVNW[Iva]LAQRK([γGlu-γGlu-C18 diacid])SSGAPPPS (ends and bridges not checked) [Compound No. 547] returned a GIP EC50(pM) in assay [1] of 0.41 pM. Besides, the GLP EC50 in assay [2] is over 1000 nM.

On to Y[Aib]EGTFISDYSIALDR[Aib]HQ[Aib]NFVNW[Iva]LAQRPSSGK([γGlu-γGlu-C18 diacid])PPPS (ends and bridges not checked) [Compound No. 551], for which the GIP EC50(pM) in assay [1] was 0.6 pM. In assay [2], this molecule displayed a GLP EC50 of over 1000 nM.

On to Y[Aib]EGTFISDYSIALDR[Aib]HQ[Aib]NFVNW[Iva]LAQRPSSK([γGlu-γGlu-C18 diacid])APPPS (ends and bridges not checked) [Compound No. 550], for which the GIP EC50(pM) in assay [1] came to 0.83 pM. In addition, the GLP EC50 in assay [2] is over 1000 nM.

For the molecule Y[Aib]EGTFISDYSIALDR[Aib]HQ[Aib]NFVNW[Iva]LAQRPSSGAPK([γGlu-γGlu-C18 diacid])PS (ends and bridges not checked) [Compound No. 553], the GIP EC50(pM) in assay [1] was determined as 1.08 pM. Further, the GLP EC50 in assay [2] is over 1000 nM.

In turn, Y[Aib]EGTFISDYSIALDR[Aib]HQ[Aib]NFVNW[Iva]LAQRPK([Abu-γGlu-C18 diacid])SGAPPPS (ends and bridges not checked) [Compound No. 538] had a GIP EC50(pM) in assay [1] of 1.8 pM. Also, the GLP EC50 in assay [2] was over 1000 nM.

As for Y[Aib]EGTFISDYSIALDR[Aib]HQ[Aib]NFVNW[Iva]LAQRPSSGAPK([Abu-γGlu-C18 diacid])PS (ends and bridges not checked) [Compound No. 543], the GIP EC50(pM) in assay [1] came to 0.72 pM. In assay [2], the GLP EC50 is over 1000 nM.

Y[Aib]EGTFISDYSIALDR[Aib]HQ[Aib]NFVNW[Iva]LAQRPK([γGlu-γGlu-C18 diacid])SGAPPPS (ends and bridges not checked) [Compound No. 548] gave a GIP EC50(pM) in assay [1] of 0.81 pM. This molecule also yielded a GLP EC50 in assay [2] of over 1000 nM.

On to Y[Aib]EGTFISDYSIALDR[Aib]HQ[Aib]NFVNW[Iva]LAQRPSSGK([Abu-γGlu-C18 diacid])PPPS (ends and bridges not checked) [Compound No. 541], for which, in assay [1], the GIP EC50(pM) is 0.73 pM. Besides, in assay [2], the GLP EC50 is over 1000 nM.

Y[Aib]EGTFISDYSIALDR[Aib]HQ[Aib]NFVNW[Iva]LAQRPSSGAPPK([PEG3′-γGlu-C16 diacid])S (ends and bridges not checked) [Compound No. 530]: the GIP EC50(pM) in assay [1] stood at 0.36 pM. In assay [2], this molecule had a GLP EC50 of over 1000 nM.

With Y[Aib]EGTFISDYSIALDR[Aib]HQ[Aib]NFVNW[Iva]LAQRPSSGAPPK([PEG3′-γGlu-C20 diacid])S (ends and bridges not checked) [Compound No. 532], the GIP EC50(pM) in assay [1] was found to be 2.05 pM. This molecule also showed a GLP EC50 in assay [2] of over 1000 nM.

With Y[Aib]EGTFISDYSIALDR[Aib]HQ[Aib]NFVNW[Iva]LAQRK([Abu-γGlu-C18 diacid])SSGAPPPS (ends and bridges not checked) [Compound No. 537], the GIP EC50(pM) in assay [1] was determined as 1.32 pM. The GLP EC50 in assay [2] was over 1000 nM.

Y[Aib]EGTFISDYSIALDR[Aib]HQ[Aib]NFVNW[Iva]LAQRPSSK([Abu-γGlu-C18 diacid])APPPS (ends and bridges not checked) [Compound No. 540] came in with a GIP EC50(pM) in assay [1] of 3.01 pM. For the same molecule, the GLP EC50 in assay [2] was over 1000 nM.

As for Y[Aib]EGTFISDYSIALDR[Aib]HQ[Aib]NFVNW[Iva]LAQRPSSGAPPPK([PEG3′-γGlu-C18 diacid]) (ends and bridges not checked) [Compound No. 534], the GIP EC50(pM) in assay [1] stood at 0.81 pM. In addition, the GLP EC50 in assay [2] is over 1000 nM.
